The results in this text go back to patent publication US6288042, “Anti-viral guanosine-rich tetrad forming oligonucleotides” (Aronex Pharmaceuticals, Inc.).

Data set [1] deals with T1, HIV-1 integrase wild-type (IN1-288) (Human immunodeficiency virus 1, UniProt P04585 P04585:1148-1435). Briefly: inhibition; 3'-processing column as printed; strand transfer column 0.110. Particulars: G4.
The target in data set [2] is T1, HIV-1 integrase wild-type (IN1-288). Briefly: inhibition; 3'-processing column as printed; strand transfer column 0.059. As to conditions: G4.
Data set [3] shares this target. The data set can be described thus: inhibition; 3'-processing column as printed; strand transfer column 0.159. Particulars: G4.
The target of data set [4] is FMLV reverse transcriptase (Friend murine leukemia virus, UniProt P26810 P26810:661-1331). Briefly: inhibition; reverse transcriptase activity in culture medium. Particulars: protein: virion; tags: culture medium of chronically infected NIH3T3 cells.
The target in data set [5] is T1, HIV-1 integrase wild-type (IN1-288). Briefly: inhibition; 3'-processing column as printed; strand transfer column 0.090. Particulars: G4.
In the next data set the target is HIV-1 gp120 (Human immunodeficiency virus 1, UniProt P04578 P04578:33-511). Briefly: competition; PT oligonucleotide inhibits V3 loop Mab binding to immobilized gp120. Particulars: tags: immobilized.
In a further data set the target is T2, SIV integrase (Simian immunodeficiency virus, UniProt P05896 P05896:1156-1448).
T2 sequence: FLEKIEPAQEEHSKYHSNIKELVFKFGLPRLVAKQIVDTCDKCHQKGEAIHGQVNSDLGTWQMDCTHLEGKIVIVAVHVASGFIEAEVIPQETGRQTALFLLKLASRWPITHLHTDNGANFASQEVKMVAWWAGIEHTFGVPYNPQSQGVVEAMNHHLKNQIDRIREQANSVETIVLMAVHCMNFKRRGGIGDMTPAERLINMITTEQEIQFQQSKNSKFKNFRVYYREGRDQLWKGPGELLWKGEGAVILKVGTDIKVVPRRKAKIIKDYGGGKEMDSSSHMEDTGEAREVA
The data set can be described thus: inhibition; 3'-processing. Particulars: G4.

The next data set addresses FIV integrase (Feline immunodeficiency virus, UniProt P16088 P16088:844-1124). Briefly: inhibition; 3'-processing. As to conditions: G4.
Data set [6] addresses HIV-1 nucleocapsid protein (Human immunodeficiency virus 1, UniProt P04591 P04591:378-432). The data set can be described thus: binds efficiently, data not shown. Particulars: G4.
Data set [7] concerns the target T1, HIV-1 integrase wild-type (IN1-288). The data set can be described thus: inhibition; 3'-processing; other column (strand transfer) 0.870; Table B-7 gives >0.50; only modest inhibition of U5 DNA binding at 500 nM (FIG. 25). Particulars: G4.
For data set [8] the target is unchanged. Briefly: inhibition; 3'-processing column as printed; strand transfer column 0.129. As to conditions: G4.
For data set [9] the target is unchanged. The data set can be described thus: inhibition; 3'-processing column as printed; strand transfer column 0.485. Particulars: G4.

As a reminder, the IC50 is the concentration that inhibits the measured activity by half. Higher therefore signals weaker potency in that assay. On to GTGGTGGGTGGGTGGGT (structured_DNA, 3'-cholesterol via triglycyl linker) [T30075], for which, in data set [1], the IC50 came out at 95 nM.
GGGGTGGTGGGTGGGT (structured_DNA, C-5 propynyl dU at capital T; PS at first and last linkage) [T30720]: the IC50 in data set [2] is 62 nM.
GTGGTTGGTGGGTGGGT (structured_DNA, PS at first and last linkage) [T30679] showed an IC50 in data set [3] of 156 nM.
Consider GTTGGGGGTTGTTGGTGGGGTGGTGG (ssDNA, PS all linkages) [I100-12], for which the IC50 in data set [4] is less than 500 nM.
Consider GTGGTGGGTGGGTGGGT (structured_DNA, 5-bromo dU at 13; PS at first and last linkage [n positions 13 = modified dU]) [T30570], for which the IC50 in data set [5] is 70 nM.
Take GTGGTGGGTGGGTGGGTGGTGGGTGGTGGTTGTGGGTGGGTGGTG (ssDNA, PS all linkages) [I100-21]: the binding result with HIV-1 gp120 is “binds”.
As to GTGGTGGGTGGGTGGGT (structured_DNA, PS at first and last linkage (pPT)) [T30177 (AR177)], the IC50 with SIV integrase amounted to 420 nM; in the data set with FIV integrase, 175 nM. Moreover, the binding result in [6] was “binds”.
Take GGTTGGTGTGGTTGG (structured_DNA, PS at first and last linkage (Table B-7; Table C-1 says PT)) [T30659 thrombin binding aptamer pPT]: in [7], the IC50 came to 750 nM.
GGGTGGGTGGGTGGGTGG (ssDNA, PS all linkages) [1174]: the binding result with HIV-1 gp120 is on record as “binds”.
In turn, GTGGGTGGTGGGTGGGT (structured_DNA, C-5 propynyl dU at capital T; PS at first and last linkage) [T30722] returned an IC50 in data set [8] of 134 nM.
For GTGGTGGGTGTGGTTGGT (structured_DNA, PS at first and last linkage) [T30675], the half-inhibitory concentration (IC50) in data set [9] came to 500 nM.
